From US20240116985A1, “STAPLED PEPTIDES AND METHODS THEREOF” (priority 2020, published 2024)
Starred links: 1 amine or outer side, 2 acyl side, 3 side chain; linkers in the order of their positions; H or OH if unused. Positions of bridges follow the written chain, without caps; N, C: chain ends. Non-standard residues stand in square brackets, D forms with d. Groups on a side chain read outwards from the residue. Primed or numbered codes have the meaning given here. *: point of attachment. PyrS2″ = (S)-3-amino-1-((pent-4-en-1-yloxy)carbonyl)pyrrolidine-3-carboxylic acid (stapling residue), C=CCCCOC(=O)N1CC[C@@](N[*:1])(C(=O)[*:2])C1; B5(4) = 2,2-bis(4-pentenyl)glycine = 2-amino-2-(pent-4-en-1-yl)hept-6-enoic acid (stitching residue), C=CCCCC(CCCC=C)(N[*:1])C(=O)[*:2]; B5(5) = 2,2-bis(4-pentenyl)glycine, 2-amino-2-(pent-4-en-1-yl)hept-6-enoic acid (stitching residue), C=CCCCC(CCCC=C)(N[*:1])C(=O)[*:2]; PyrS2 = (S)-3-amino-1-((pent-4-en-1-yloxy)carbonyl)pyrrolidine-3-carboxylic acid, C=CCCCOC(=O)N1CC[C@@](N[*:1])(C(=O)[*:2])C1; B5(27) = 2-amino-2-(pent-4-en-1-yl)hept-6-enoic acid (two alkene side-chain arms), C=CCCCC(CCCC=C)(N[*:1])C(=O)[*:2]; MePpzAsn = (S)-2-amino-4-(4-methylpiperazin-1-yl)-4-oxobutanoic acid, CN1CCN(C(=O)C[C@H](N[*:1])C(=O)[*:2])CC1; F2PipNva = (S)-2-amino-5-(4,4-difluoropiperidin-1-yl)pentanoic acid, O=C([C@H](CCCN1CCC(F)(F)CC1)N[*:1])[*:2]; F2PipAbu = (S)-2-amino-4-(4,4-difluoropiperidin-1-yl)butanoic acid, O=C([C@H](CCN1CCC(F)(F)CC1)N[*:1])[*:2]; MePpzNva = (S)-2-amino-5-(4-methylpiperazin-1-yl)pentanoic acid, CN1CCN(CCC[C@H](N[*:1])C(=O)[*:2])CC1; MePpzAbu = (S)-2-amino-4-(4-methylpiperazin-1-yl)butanoic acid, CN1CCN(CC[C@H](N[*:1])C(=O)[*:2])CC1; 4TriA = (S)-2-amino-3-(1H-1,2,3-triazol-4-yl)propanoic acid, O=C([C@H](Cc1c[nH]nn1)N[*:1])[*:2]; Lithocholoyl = C[C@H](CCC(=O)*)[C@H]1CC[C@H]2[C@@H]3CC[C@@H]4C[C@H](O)CC[C@]4(C)[C@H]3CC[C@]12C; MorphAsn = (S)-2-amino-4-morpholino-4-oxobutanoic acid, O=C(C[C@H](N[*:1])C(=O)[*:2])N1CCOCC1; B5(3) = 2,2-bis(4-pentenyl)glycine (stitching residue), C=CCCCC(CCCC=C)(N[*:1])C(=O)[*:2]; Me3AdamantC = 3,5,7-trimethyladamantane-1-carbonyl, CC12CC3(C)CC(C)(C1)CC(C(=O)*)(C2)C3; MorphAbu = (S)-2-amino-4-morpholinobutanoic acid, O=C([C@H](CCN1CCOCC1)N[*:1])[*:2]; Phe(4-(3-Py)) = N[C@@H](Cc1ccc(-c2cccnc2)cc1)C(=O)O; Nva(5-morpholino) = N[C@@H](CCCN1CCOCC1)C(=O)O; Bta = N[C@@H](Cc1csc2ccccc12)C(=O)O; αAllylPro = C=CC[C@@]1(C(=O)O)CCCN1; tBuAla = CC(C)(C)C[C@H](N)C(=O)O; 3Thi = N[C@@H](Cc1ccsc1)C(=O)O; S8 = C=CCCCCCC[C@](C)(N)C(=O)O; hSer = N[C@@H](CCO)C(=O)O; Nle = CCCC[C@H](N)C(=O)O; PEG2′ = not defined here

Molecular target: full-length beta-Catenin (Uniprot ID P35222) (Homo sapiens (Human)) (UniProt P35222)
Experiment: fluorescence polarization competition; displacement of 5FAM-TCF4(10-53) from full-length beta-catenin

| Binder | IC50 |
| --- | --- |
| Ac-[αAllylPro]DS[B5(4)]DDAAFL[PyrS2″][3Thi][Bta][hSer]-NH2 (staple 1-4, 4-11) [I-1514: Ac-PL3-Asp-Ser-B5-Asp-Asp-Ala-Ala-Phe-Leu-PyrS2-3Thi-BztA-Hse-NH2] | 27 nM |
| Ac-[αAllylPro]D[tBuAla][B5(27)]DDA[MorphAbu]FL[PyrS2][3Thi][Bta]Q-NH2 (staple 1-4, 4-11) [I-1504] | 46 nM |
| Ac-[αAllylPro]D[tBuAla][B5(27)]DDAAFL[PyrS2][3Thi][Bta]W-NH2 (staple 1-4, 4-11) [I-1497] | 50 nM |
| Ac-[αAllylPro]D[tBuAla][B5(5)]DDAAFL[PyrS2″][3Thi][Bta]QK(Lithocholoyl)-NH2 (staple 1-4, 4-11) [I-1477] | 148 nM |
| Ac-[αAllylPro]D[tBuAla][B5(27)]DDAAFL[PyrS2][3Thi][Bta]F-NH2 (staple 1-4, 4-11) [I-1496] | 51 nM |
| Ac-[αAllylPro]D[tBuAla][B5(4)]DDA[MePpzAsn]FL[PyrS2][3Thi][Bta]Q-NH2 (staple 1-4, 4-11) [I-1508: Ac-PL3-Asp-Npg-B5-Asp-Asp-Ala-MePpzAsn-Phe-Leu-PyrS2-3Thi-BztA-Gln-NH2] | 87 nM |
| Ac-[αAllylPro]D[tBuAla][B5(27)]DDA[F2PipNva]FL[PyrS2][3Thi][Bta]Q-NH2 (staple 1-4, 4-11) [I-1502] | 34 nM |
| Ac-[αAllylPro]D[tBuAla][B5(3)]DD[MePpzAsn]AFL[PyrS2″][3Thi][Bta]Q-NH2 (staple 1-4, 4-11) [I-1484] | 30 nM |
| Ac-[αAllylPro]D[tBuAla][B5(5)]DDAK(Me3AdamantC)FL[PyrS2″][3Thi][Bta]Q-NH2 (staple 1-4, 4-11) [I-1475] | 113 nM |
| Ac-[αAllylPro]D[tBuAla][B5(27)]DDAAFL[PyrS2][3Thi][Bta][4TriA]-NH2 (staple 1-4, 4-11) [I-1498] | 48 nM |
| Ac-[αAllylPro]D[tBuAla][B5(27)]DDA[Nva(5-morpholino)]FL[PyrS2][3Thi][Bta]Q-NH2 (staple 1-4, 4-11) [I-1501] | 46 nM |
| Ac-[αAllylPro]D[tBuAla][B5(4)]DDA[MePpzAbu]FL[PyrS2][3Thi][Bta]Q-NH2 (staple 1-4, 4-11) [I-1506: Ac-PL3-Asp-Npg-B5-Asp-Asp-Ala-MePpzAbu-Phe-Leu-PyrS2-3Thi-BztA-Gln-NH2] | 89 nM |
| Ac-[αAllylPro]D[tBuAla][B5(27)]DDA[MorphAsn]FL[PyrS2][3Thi][Bta]Q-NH2 (staple 1-4, 4-11) [I-1507: Ac-PL3-Asp-Npg-B5-Asp-Asp-Ala-MorphAsn-Phe-Leu-PyrS2-3Thi-BztA-Gln-NH2] | 30 nM |
| Ac-[αAllylPro]D[tBuAla][B5(4)]DDAK([PEG2′-Lithocholoyl])FL[PyrS2″][3Thi][Bta]Q-NH2 (staple 1-4, 4-11) [I-1474] | 41 nM |
| Ac-[αAllylPro]D[tBuAla][B5(4)]DDAAFL[PyrS2″][3Thi][Bta]QK([PEG2′-Lithocholoyl])-NH2 (staple 1-4, 4-11) [I-1478] | 75 nM |
| Ac-[αAllylPro]DN[B5(5)]DDAAFL[PyrS2″][3Thi][Bta]Q-NH2 (staple 1-4, 4-11) [I-1517: Ac-PL3-Asp-Asn-B5-Asp-Asp-Ala-Ala-Phe-Leu-PyrS2-3Thi-BztA-Gln-NH2] | 32 nM |
| Ac-[αAllylPro]D[tBuAla][B5(5)]DDAAFL[PyrS2″][3Thi][Bta]QK(Me3AdamantC)-NH2 (staple 1-4, 4-11) [I-1479] | 173 nM |
| Ac-[αAllylPro]D[tBuAla][B5(27)]DDAAFL[PyrS2][3Thi][Bta]V-NH2 (staple 1-4, 4-11) [I-1495] | 24 nM |
| Ac-[αAllylPro]D[tBuAla][B5(3)]DDAAFL[PyrS2″][3Thi][Bta]QK([PEG2′-Me3AdamantC])-NH2 (staple 1-4, 4-11) [I-1480] | 37 nM |
| Ac-[αAllylPro]D[tBuAla][B5(4)]DDA[MePpzNva]FL[PyrS2][3Thi][Bta]Q-NH2 (staple 1-4, 4-11) [I-1503] | 38 nM |
| Ac-[αAllylPro]D[tBuAla][B5(27)]DDA[F2PipAbu]FL[PyrS2][3Thi][Bta]Q-NH2 (staple 1-4, 4-11) [I-1505: Ac-PL3-Asp-Npg-B5-Asp-Asp-Ala-F2PipAbu-Phe-Leu-PyrS2-3Thi-BztA-Gln-NH2] | 39 nM |
| Ac-[αAllylPro]DT[B5(5)]DDAAFL[PyrS2″][3Thi][Bta][hSer]-NH2 (staple 1-4, 4-11) [I-1516: Ac-PL3-Asp-Thr-B5-Asp-Asp-Ala-Ala-Phe-Leu-PyrS2-3Thi-BztA-Hse-NH2] | 30 nM |
| Ac-[αAllylPro]D[tBuAla][B5(5)]DDAK(Lithocholoyl)FL[PyrS2][3Thi][Bta]Q-NH2 (staple 1-4, 4-11) [I-1473] | 224 nM |

More lines, now with the values ahead:

| IC50 | Binder |
| --- | --- |
| 17 nM | Ac-[αAllylPro]D[tBuAla][B5(3)]DD[Phe(4-(3-Py))]AFL[PyrS2″]F[Bta]Q-NH2 (staple 1-4, 4-11) [I-1489] |
| 23 nM | Ac-[αAllylPro]DN[B5(5)]DDAAFL[PyrS2″][3Thi][Bta][hSer]-NH2 (staple 1-4, 4-11) [I-1518: Ac-PL3-Asp-Asn-B5-Asp-Asp-Ala-Ala-Phe-Leu-PyrS2-3Thi-BztA-Hse-NH2] |
| 16 nM | Ac-[αAllylPro]D[tBuAla][B5(4)]DDAK([PEG2′-Me3AdamantC])FL[PyrS2″][3Thi][Bta]Q-NH2 (staple 1-4, 4-11) [I-1476] |
| 7 nM | Ac-[αAllylPro]D[tBuAla][B5(3)]DDAAF[MorphAsn][PyrS2″][3Thi][Bta]Q-NH2 (staple 1-4, 4-11) [I-1487] |
| 24 nM | Ac-[αAllylPro]DT[B5(5)]DDAAFL[PyrS2″][3Thi][Bta]Q-NH2 (staple 1-4, 4-11) [I-1515: Ac-PL3-Asp-Thr-B5-Asp-Asp-Ala-Ala-Phe-Leu-PyrS2-3Thi-BztA-Gln-NH2] |
| 5 nM | Ac-[αAllylPro]DY[B5(27)]DDAAFL[PyrS2][3Thi][Bta]Q-NH2 (staple 1-4, 4-11) [I-1511: Ac-PL3-Asp-Tyr-B5-Asp-Asp-Ala-Ala-Phe-Leu-PyrS2-3Thi-BztA-Gln-NH2] |
| 7 nM | Ac-[αAllylPro]D[tBuAla][B5(3)]DDAAF[Nva(5-morpholino)][PyrS2″][3Thi][Bta]Q-NH2 (staple 1-4, 4-11) [I-1485] |
| 12 nM | Ac-[αAllylPro]DY[B5(5)]DDAAFL[PyrS2″][3Thi][Bta][hSer]-NH2 (staple 1-4, 4-11) [I-1512: Ac-PL3-Asp-Tyr-B5-Asp-Asp-Ala-Ala-Phe-Leu-PyrS2-3Thi-BztA-Hse-NH2] |
| 6 nM | Ac-[αAllylPro]D[Nle][B5(5)]DEAAFQ[S8]F[Bta]Q-NH2 (staple 1-4, 4-11) [I-1522: Ac-PL3-Asp-nLeu-B5-Asp-Glu-Ala-Ala-Phe-Gln-S8-Phe-BztA-Gln-NH2] |
| 10 nM | Ac-[αAllylPro]DF[B5(27)]DDAAFL[PyrS2][3Thi][Bta][hSer]-NH2 (staple 1-4, 4-11) [I-1510: Ac-PL3-Asp-Phe-B5-Asp-Asp-Ala-Ala-Phe-Leu-PyrS2-3Thi-BztA-Hse-NH2] |
| 7 nM | Ac-[αAllylPro]D[tBuAla][B5(3)]DD[F2PipNva]AFL[PyrS2″][3Thi][Bta]Q-NH2 (staple 1-4, 4-11) [I-1482] |
| 21 nM | Ac-[αAllylPro]DS[B5(5)]DDAAFL[PyrS2″][3Thi][Bta]Q-NH2 (staple 1-4, 4-11) [I-1513: Ac-PL3-Asp-Ser-B5-Asp-Asp-Ala-Ala-Phe-Leu-PyrS2-3Thi-BztA-Gln-NH2] |
| 5 nM | Ac-[αAllylPro]D[tBuAla][B5(3)]DDAAFL[PyrS2″][3Thi][Bta]N-NH2 (staple 1-4, 4-11) [I-1492] |
| 5 nM | Ac-[αAllylPro]D[tBuAla][B5(3)]DDAAF[F2PipNva][PyrS2″][3Thi][Bta]Q-NH2 (staple 1-4, 4-11) [I-1486] |
| 6 nM | Ac-[αAllylPro]D[tBuAla][B5(3)]DDAAF[MePpzAsn][PyrS2″][3Thi][Bta]Q-NH2 (staple 1-4, 4-11) [I-1488] |
| 7 nM | Ac-[αAllylPro]D[tBuAla][B5(3)]DD[Nva(5-morpholino)]AFL[PyrS2″][3Thi][Bta]Q-NH2 (staple 1-4, 4-11) [I-1481] |
| 16 nM | Ac-[αAllylPro]D[Nle][B5(5)]DEAAFQ[S8]F[Bta]Q-NH2 (staple 1-4, 4-11; also: staple isomer, earlier eluting HPLC peak) [I-1521: Ac-PL3-Asp-nLeu-B5-Asp-Glu-Ala-Ala-Phe-Gln-S8-Phe-BztA-Gln-NH2] |
| 22 nM | Ac-[αAllylPro]D[tBuAla][B5(3)]DD[MorphAsn]AFL[PyrS2″][3Thi][Bta]Q-NH2 (staple 1-4, 4-11) [I-1483] |
| 5 nM | Ac-[αAllylPro]D[tBuAla][B5(27)]DDAAFL[PyrS2][3Thi][Bta]T-NH2 (staple 1-4, 4-11) [I-1494] |
